Source: patent US20260234254A1 (APTEVO RESEARCH AND DEVELOPMENT, published 2026)

Target: T1, recombinant monomeric CD123 ectodomain (ECD) with an affinity tag on the C-terminus (UniProt P26951 19-305)
T1 construct: extracellular domain; also called CD123 ECD; extracellular domain of CD123
T1 sequence (looked up): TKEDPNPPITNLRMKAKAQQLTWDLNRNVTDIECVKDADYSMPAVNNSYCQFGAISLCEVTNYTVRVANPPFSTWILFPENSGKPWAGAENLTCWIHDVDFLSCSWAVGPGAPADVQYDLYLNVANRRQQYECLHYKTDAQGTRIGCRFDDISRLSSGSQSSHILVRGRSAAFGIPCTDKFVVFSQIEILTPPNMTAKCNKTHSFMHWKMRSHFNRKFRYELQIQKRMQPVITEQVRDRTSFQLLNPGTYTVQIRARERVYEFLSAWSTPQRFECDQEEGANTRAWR
Assay: SPR (Biacore T200), bispecific captured by anti-human Fc F(ab')2, CD123 ECD 3-48 nM as analyte, 25 °C, 1:1 model
Protocol: SPR binding studies of bispecific molecules to recombinant monomeric CD123 ectodomain (ECD) were conducted at 25° C. in HBS-EP+ buffer. […] The bispecific molecules at 200 nM in HBS-EP+ buffer were captured by the immobilized anti-Fc F(ab′)2 fragment at a flow rate of 30 μL/min for 120 sec to reach a stable 2000 RU response. […] Optimal regeneration was achieved by one injection of 10 mM glycine (pH 1.7) at a flow rate of 30 μL/min for 15 sec followed by one injection of 50 mM NaOH at 30 μL/min for 15 sec. A two minute stabilization with HBS-EP+ buffer was completed before the subsequent run.
Sensorgrams obtained from kinetic SPR measurements were analyzed by the double subtraction method. The signal from the reference flow cell was subtracted from the analyte binding response obtained from flow cells with immobilized or captured ligands. Buffer reference responses were then averaged from multiple injections. […] All sensorgrams were fitted using a simple one-to-one binding model.

- Kd: 11.4 nM
- koff: 0.00205 s⁻¹
- kon: 179000 M⁻¹ s⁻¹
B1: OMT1 VHVL x TSC456 scFv-Fc-scFv TRI129 (bispecific antibody)
chain: EVQLLESGGGLVQPGGSLRLSCAASGFTFSSYGMSWVRQAPGKGLEGVSAISGSGGSTYYADSVKGRFTISRDNSKNTLYLQMNSLRAEDTAVYYCAKEKLRYFDWLSDAFDIWGQGTMVTVSSGGGGSGGGGSGGGGSGGGGSDIVMTQSPDSLAVSLGERATINCKSSHSVLYSSNNKNYLAWYQQKPGQPPKLLIYWASTRESGVPDRFSGSGSGTDFTLTISSLQAEDVAVYYCQQYYSTPPTTFGGGTKVEIKSSSEPKSSDKTHTCPPCPAPEAAGAPSVFLFPPKPKDTLMISRTPEVTCVVVDVSHEDPEVKFNWYVDGVEVHNAKTKPREEQYNSTYRVVSVLTVLHQDWLNGKEYKCAVSNKALPAPIEKTISKAKGQPREPQVYTLPPSRDELTKNQVSLTCLVKGFYPSDIAVEWESNGQPENNYKTTPPVLDSDGSFFLYSKLTVDKSRWQQGNVFSCSVMHEALHNHYTQKSLSLSPGSGGGGSGGGGSGGGGSPSQVQLVQSGPEVKKPGSSVKVSCKASGYTFSRSTMHWVRQAPGQGLEWIGYINPSSAYTNYNQKFKDRVTITADKSTSTAYMELSSLRSEDTAVYYCARPQVHYDYNGFPYWGQGTLVTVSSGGGGSGGGGSGGGGSGGGGSDIQMTQSPSTLSASVGDRVTMTCSASSSVSYMNWYQQKPGKAPKRWIYDSSKLASGVPSRFSGSGSGTDYTLTISSLQPDDFATYYCQQWSRNPPTFGGGTKVEIKRS
notes: Single-chain scFv-Fc-scFv, anti-CD123 (OMT1, VH-VL) x anti-CD3ε (TSC456)
